Measurements published in article PMC3595323 (Proteins, 2013).

Molecular target: the molecule itself
Assay: crystal structure

B1: Thermoplasma acidophilum nucleoside kinase Ta0880, crystallization construct (E112A, K113A, K115A) (enzyme, UniProt Q9HJT3 1-287, looked up)
chain: MRFLAYFGHLNIDVLISVDSIPREGSVNVKDLRPRFGGTAGNFAIVAQKFRIPFDLYSAVGMKTHREYLAMIESMGINTGHVEKFEDESGPICYIATDGKKQVSFMHQGAMAAWAPQLADEYEYVHFSTGPNYLDMAKSIRSKIIFDPSQEIHKYSKDELKKFHEISYMSIFNDHEYRVFREMTGLSSPKVTTIVTNGERGSSLFMDGKKYDFPAIPSSGDTVGAGDSFRAGLYLALYNRRSIEKGMIYGTIIAHHVIDDGIENFSLNMEDLERETENYRRMFTKRS
modifications: selenomethionine (expressed in selenomethionine-containing medium with suppression of normal methionine synthesis)
  binding result: binds
